# Results: the supplement of paper PMC10126150
# ± gives the standard deviation of the averaged measurements.
# System: ATP
# Experiment: switch fluorescence ratio, 500 uM ATP over buffer (Cy3 cluster intensity, sum of 5 cycles each) (fold (ratio)); higher = stronger signal-on switching upon ATP binding; sequences stand for … in TCGTCGGCAGCGTCAGATGTGTATAAGAGACAGTTTTTTTTTTTTTTTTTTTTTTTTT…TC
# Conditions: aptamer strand: ATP DNA aptamer (quencher-CACCTGGGGGAGTATTGCGGAGGAAGG + anchor), 100 nM annealed; ATP concentration: 500 uM
# Procedure, shortened: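 For every switch-domain sequence, the fluorescence ratio is the mean of per-cluster values, each being summed target-cycle Cy3 intensity over summed buffer-cycle Cy3 intensity. Clusters outside 100-1000 RFU were excluded. On a modified Illumina MiSeq flow-cell, the Cy3-labelled switching-strand clusters were annealed to 100 nM quencher-labelled ATP aptamer, imaged in selection buffer and then after 15 min with 500 uM ATP at 22 °C. Five such cycles were run, with NaOH stripping and re-annealing between them.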
# 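Further: ATP exposure 15 min at 22 °C before imaging.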
row,Sequence,switch fluorescence ratio
1,GGAGCAGGGA,0.963 ± 0.025
2,GGAGCCCCGA,0.9814 ± 0.0076
3,GGAGCGGGGA,1 ± 0.084
4,GGAGCTGCGG,0.9914 ± 0.0038
5,GGAGCTGGGA,1.0097 ± 0.00033
6,GGAGGAAATG,0.949 ± 0.011
7,GGAGGAAATT,1.01 ± 0.082
8,GGAGGATTTA,0.984 ± 0.042
9,GGAGGCACTG,0.9996 ± 0.0095
10,GGAGGGATCT,0.966 ± 0.011
11,GGAGGGATGG,1.13 ± 0.2
12,GGAGGGCGGG,1.02 ± 0.021
13,GGAGGGGAGG,0.991 ± 0.029
14,GGAGGGGATT,0.982 ± 0.03
15,GGAGGGGCAA,1.24 ± 0.032
16,GGAGGGGCGA,1.1 ± 0.14
17,GGAGGGGGAC,3.13 ± 3.1
18,GGAGGGGGAG,0.9817 ± 0.0084
19,GGAGGGTTAC,0.972 ± 0.016
20,GGAGGTGG,0.942 ± 0.026
21,GGAGGTGGTT,0.981 ± 0.018
22,GGAGGTGTTA,1.01 ± 0.031
23,GGAGGTTTAA,1.01 ± 0.024
24,GGAGTACAAA,1.03 ± 0.033
25,GGAGTATAAG,0.957 ± 0.012

row,Sequence,switch fluorescence ratio
1,GGAGTATCCT,0.981 ± 0.016
2,GGAGTATTGG,1.02 ± 0.022
3,GGAGTCGACG,1.02 ± 0.012
4,GGAGTCGTTT,0.987 ± 0.027
5,GGAGTCTGGG,0.981 ± 0.021
6,GGAGTGCCGT,1 ± 0.093
7,GGAGTGCTGG,0.995 ± 0.032
8,GGAGTGGTTC,0.999 ± 0.013
9,GGAGTTATAT,1.105 ± 0.01
10,GGAGTTGCAG,0.975 ± 0.063
11,GGAGTTGGAT,0.98205 ± 0.00015
12,GGAGTTTAGC,1.02 ± 0.029
13,GGAGTTTTGT,0.9614 ± 0.0087
14,GGATAAAATT,0.996 ± 0.015
15,GGATAAGAAT,1.02 ± 0.052
16,GGATAATGAG,0.961 ± 0.028
17,GGATAGGACA,1 ± 0.04
18,GGATAGGTAC,1.05 ± 0.04
19,GGATAGGTAT,1.02 ± 0.066
20,GGATAGTGCT,0.993 ± 0.012
21,GGATATGGGT,0.966 ± 0.011
22,GGATATTGGC,0.977 ± 0.092
23,GGATATTGTC,0.991 ± 0.024
24,GGATCACACT,1.02 ± 0.012
25,GGATCAGAGA,1.08 ± 0.023

row,Sequence,switch fluorescence ratio
1,GGATCCTGGG,0.993 ± 0.022
2,GGATCTAGGG,0.981 ± 0.018
3,GGATCTGTCG,0.98 ± 0.037
4,GGATCTTGGC,1.02 ± 0.025
5,GGATCTTGTG,1.01 ± 0.021
6,GGATGACAGA,0.969 ± 0.01
7,GGATGAGCTG,0.978 ± 0.052
8,GGATGCAGCT,1.12 ± 0.1
9,GGATGCGCCT,1.06 ± 0.15
10,GGATGCTGAT,1 ± 0.047
11,GGATGGAGGC,0.987 ± 0.059
12,GGATGGGATA,1 ± 0.016
13,GGATGGGCTA,0.999 ± 0.025
14,GGATGGGGGC,0.992 ± 0.023
15,GGATGGGTGT,1.02 ± 0.034
16,GGATGGTATG,1.01 ± 0.015
17,GGATGGTGCA,0.94 ± 0.062
18,GGATGGTGGG,1.01 ± 0.042
19,GGATGTAAGT,0.97 ± 0.017
20,GGATGTAGGG,0.999 ± 0.029
21,GGATGTGTAA,1.007 ± 0.007
22,GGATGTGTTT,0.999 ± 0.029
23,GGATTAAAAG,1.01 ± 0.067
24,GGATTAATTT,0.98006 ± 0.00058
25,GGATTACTAA,0.99 ± 0.029

row,Sequence,switch fluorescence ratio
1,GGATTAGGGT,0.975 ± 0.019
2,GGATTATGAA,0.994 ± 0.023
3,GGATTATGGC,0.943 ± 0.061
4,GGATTCTGGA,0.991 ± 0.031
5,GGATTGGACG,0.976 ± 0.016
6,GGATTGGGCG,0.986 ± 0.026
7,GGATTGGGGT,0.986 ± 0.04
8,GGATTGTAAT,0.9956 ± 0.0034
9,GGATTGTGAA,1 ± 0.025
10,GGATTGTTTA,1 ± 0.014
11,GGATTTAGAA,0.975 ± 0.032
12,GGATTTAGGC,0.977 ± 0.029
13,GGATTTAGGT,0.994 ± 0.049
14,GGATTTGGCC,1 ± 0.043
15,GGATTTGTTA,0.983 ± 0.039
16,GGATTTTAGC,0.9835 ± 0.0024
17,GGATTTTAGG,0.997 ± 0.019
18,GGATTTTGGC,0.99 ± 0.019
19,GGCAACGCGC,0.997 ± 0.031
20,GGCAACTTCT,1.02 ± 0.011
21,GGCAATAGGG,1.14 ± 0.056
22,GGCAATCGAA,1.1145 ± 0.00045
23,GGCAATGGTT,1.1 ± 0.11
24,GGCACATAAT,1.08 ± 0.087
25,GGCACGGAGG,0.989 ± 0.019

row,Sequence,switch fluorescence ratio
1,GGCAGAAAAA,0.9949 ± 0.0018
2,GGCAGAGCTG,1.016 ± 0.01
3,GGCAGGGACT,1 ± 0.033
4,GGCAGGGATT,1.01 ± 0.014
5,GGCAGGGGGG,1.04 ± 0.056
6,GGCAGTCCTT,1.005 ± 0.0044
7,GGCAGTTGGG,0.9868 ± 0.007
8,GGCAGTTGTG,0.986 ± 0.024
9,GGCATAGAAT,1.001 ± 0.0012
10,GGCATAGATT,0.976 ± 0.066
11,GGCATAGGTA,1.01 ± 0.012
12,GGCATGCCAT,0.9908 ± 0.0077
13,GGCATGTGCG,1.02 ± 0.031
14,GGCATTAATT,1.01 ± 0.048
15,GGCATTATAT,0.9984 ± 0.0058
16,GGCATTGGGG,1.03 ± 0.029
17,GGCATTTGAC,1.02 ± 0.006
18,GGCATTTGTG,1 ± 0.025
19,GGCATTTTTG,1.03 ± 0.015
20,GGCCAAGGAT,1.01 ± 0.028
21,GGCCAAGTTG,0.994 ± 0.017
22,GGCCACGGGG,0.991 ± 0.0054
23,GGCCATCCAG,1.01 ± 0.036
24,GGCCATTTTT,1.01 ± 0.03
25,GGCCCAGCGC,0.976 ± 0.0011

row,Sequence,switch fluorescence ratio
1,GGCCCAGGAT,1.07 ± 0.094
2,GGCCCAGGGA,1.18 ± 0.18
3,GGCCCCAAAT,0.9817 ± 0.0041
4,GGCCCCTGGC,1.04 ± 0.063
5,GGCCCCTTAG,1.02 ± 0.03
6,GGCCCGGGTT,0.994 ± 0.019
7,GGCCCGTACT,1.04 ± 0.042
8,GGCCCTGCGA,1.06 ± 0.056
9,GGCCGAAGGG,1.03 ± 0.066
10,GGCCGAGGGT,1.03 ± 0.025
11,GGCCGCCTTG,1 ± 0.037
12,GGCCGCGGAC,1.01 ± 0.035
13,GGCCGGCAAC,0.9996 ± 0.0039
14,GGCCGGCAGG,0.972 ± 0.024
15,GGCCGGCTAA,0.997 ± 0.011
16,GGCCGGGAAT,0.9941 ± 0.0028
17,GGCCGGGACT,0.987 ± 0.062
18,GGCCGGGGAG,0.981 ± 0.018
19,GGCCGGGGGC,0.994 ± 0.047
20,GGCCGTGAGG,1.01 ± 0.0098
21,GGCCGTTCGT,1.008 ± 0.0091
22,GGCCGTTTGG,0.981 ± 0.032
23,GGCCTAAAAG,0.978 ± 0.022
24,GGCCTCAAGG,1.06 ± 0.04
25,GGCCTGGATT,1.05 ± 0.031

row,Sequence,switch fluorescence ratio
1,GGCCTGGGCT,1.02 ± 0.061
2,GGCCTGGTGT,1.29 ± 0.21
3,GGCCTTATCG,0.991 ± 0.048
4,GGCCTTGGCA,1.03 ± 0.015
5,GGCCTTTATT,1.01 ± 0.031
6,GGCGACCTGG,0.993 ± 0.021
7,GGCGAGAACG,0.986 ± 0.018
8,GGCGCAACAG,1.44 ± 0.14
9,GGCGCAACCG,1.09 ± 0.015
10,GGCGCAAGGA,2.41 ± 1.9
11,GGCGCAGTGG,1.11 ± 0.041
12,GGCGCCTTTT,0.988 ± 0.033
13,GGCGCGGAGG,0.992 ± 0.019
14,GGCGCTGGAT,1.02 ± 0.019
15,GGCGGAAGAA,1.07 ± 0.013
16,GGCGGCGAGG,1.02 ± 0.011
17,GGCGGCGCAA,1.51 ± 0.16
18,GGCGGCGCTG,1.03 ± 0.028
19,GGCGGGAAAG,0.983 ± 0.037
20,GGCGGGATCT,1.21 ± 0.26
21,GGCGGGGTAG,0.996 ± 0.032
22,GGCGTAATCT,1.04 ± 0.037
23,GGCGTACTTG,1.01 ± 0.012
24,GGCGTAGGAG,0.997 ± 0.021
25,GGCGTATCAG,0.979 ± 0.051

row,Sequence,switch fluorescence ratio
1,GGCGTGGCGG,0.994 ± 0.019
2,GGCGTTGCGG,0.9849 ± 0.0058
3,GGCGTTTTCG,0.997 ± 0.044
4,GGCTAAGACT,0.988 ± 0.024
5,GGCTACTGAG,1.08 ± 0.066
6,GGCTAGTGAC,1 ± 0.03
7,GGCTATGTGG,0.987 ± 0.03
8,GGCTATTTTG,0.999 ± 0.073
9,GGCTCGGCAG,1.05 ± 0.043
10,GGCTCGGTAC,1.24 ± 0.13
11,GGCTCTTAGG,0.975 ± 0.03
12,GGCTGAAAGT,0.991 ± 0.016
13,GGCTGACATT,0.979 ± 0.046
14,GGCTGACCGG,1 ± 0.048
15,GGCTGACGTC,1 ± 0.038
16,GGCTGAGGCG,0.965 ± 0.024
17,GGCTGATGCA,0.938 ± 0.034
18,GGCTGCAATG,1.39 ± 0.069
19,GGCTGGAAAC,1.23 ± 0.22
20,GGCTGGGCTG,0.991 ± 0.029
21,GGCTGGGGCA,0.979 ± 0.021
22,GGCTGGTGTG,1.02 ± 0.029
23,GGCTGTTAAA,0.978 ± 0.019
24,GGCTTAAGGG,0.972 ± 0.025
25,GGCTTAATGA,0.971 ± 0.029
